The target in the assay is T1, Human NKp30 (BKM0179) (human, UniProt O14931).
T1 chain: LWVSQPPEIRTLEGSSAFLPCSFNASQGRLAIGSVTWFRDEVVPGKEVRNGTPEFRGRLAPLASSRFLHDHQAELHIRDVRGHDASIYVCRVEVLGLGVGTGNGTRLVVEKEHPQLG

This note sets out measurements from patent publication US20260327306 (published 2026).

In general, Kd refers to the concentration at which binding is half-saturated.

B1: BKM0138 (BJM0411 VL-N95A) (antibody, V domains shown)
VH: EIQLLESGGGLVQPGGSLRLSCAVSGFSITTTGYHWNWVRQAPGKGLEWVGYIYSSGSTSYNPSLKSRFTISRDTSKNTFYLQMNSLRAEDTAVYYCARGDWHYFDYWGQGTMVTVSS
VL: DSVTTQSPLSLPVTLGQPASISCSGEKLSDKYVHWYQQRPGQSPRMLIYENDRRPSGVPDRFSGSNSGNDATLKVEAEDVGVYFCQFWDSTASAVFGGGTKVEIKI
Molecule B1 registered a Kd of 3.2 nM.
